The supplement of paper PMC10126150
± gives the standard deviation of the averaged measurements.
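Also: ATP exposure 15 min at 22 °C before imaging.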

What follows are sequences tested on ATP (assay: switch fluorescence ratio, 500 uM ATP over buffer (Cy3 cluster intensity, sum of 5 cycles each) (fold (ratio)); higher = stronger signal-on switching upon ATP binding; sequences stand for … in TCGTCGGCAGCGTCAGATGTGTATAAGAGACAGTTTTTTTTTTTTTTTTTTTTTTTTT…TC). Settings: aptamer strand: ATP DNA aptamer (quencher-CACCTGGGGGAGTATTGCGGAGGAAGG + anchor), 100 nM annealed; ATP concentration: 500 uM.
Summary of the method: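 The quencher-labelled ATP aptamer, at 100 nM, was annealed to Cy3-labelled switching-strand clusters on a modified Illumina MiSeq flow-cell. The clusters were imaged in selection buffer, then after 15 min with 500 uM ATP at 22 °C, and this buffer/ATP cycle ran five times with NaOH stripping and re-annealing between runs. Per-cluster fluorescence ratios, summed target-cycle over summed buffer-cycle Cy3 intensity, were averaged per switch-domain sequence. Clusters outside 100-1000 RFU were excluded.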
In the case of GGAGGTTAAC, the switch fluorescence ratio is reported as 1.012 ± 0.0091.
GGAGTAAGAT was tested, and the switch fluorescence ratio was 1.3 ± 0.018.
GGAGTACTGT was tested, and the switch fluorescence ratio was 1.02 ± 0.013.
Sequence GGAGTATGGG has a switch fluorescence ratio of 0.997 ± 0.029.
In the case of GGAGTCAGAA, the switch fluorescence ratio is reported as 0.995 ± 0.014.
In the case of GGAGTCTAGC, the switch fluorescence ratio is reported as 0.9825 ± 0.0036.
With GGAGTGGGTC the switch fluorescence ratio was 1.02 ± 0.041.
For GGAGTGGTTG, the switch fluorescence ratio was 0.999 ± 0.036.
For GGAGTTAAGT, the switch fluorescence ratio was 0.987 ± 0.043.
Sequence GGAGTTGAGG has a switch fluorescence ratio of 0.98147 ± 0.00093.
GGAGTTGATT showed a switch fluorescence ratio of 0.9808 ± 0.0015.
GGAGTTGTGA showed a switch fluorescence ratio of 0.995 ± 0.021.
In the case of GGAGTTTGGG, the switch fluorescence ratio is reported as 0.994 ± 0.039.
Sequence GGAGTTTGTG has a switch fluorescence ratio of 0.989 ± 0.014.
GGATAAGGAC was tested, and the switch fluorescence ratio was 0.984 ± 0.019.
For GGATAATAAG, the switch fluorescence ratio was 1.01 ± 0.029.
Work on GGATAATATT yielded a switch fluorescence ratio of 1.05 ± 0.026.
GGATACCGTA showed a switch fluorescence ratio of 1 ± 0.085.
GGATAGAGGA showed a switch fluorescence ratio of 1.01 ± 0.02.
Sequence GGATAGGGGC has a switch fluorescence ratio of 1.03 ± 0.054.
GGATATAGTC showed a switch fluorescence ratio of 1 ± 0.036.
GGATATATGG gave a switch fluorescence ratio of 1 ± 0.025.
GGATATCTGG showed a switch fluorescence ratio of 1.014 ± 0.0053.
GGATATGAGG showed a switch fluorescence ratio of 1 ± 0.018.
GGATATGTGT showed a switch fluorescence ratio of 0.991 ± 0.016.
In the case of GGATATTTGG, the switch fluorescence ratio is reported as 0.992 ± 0.029.
Work on GGATCCACGG yielded a switch fluorescence ratio of 1.012 ± 0.005.
Work on GGATCCTTTC yielded a switch fluorescence ratio of 1.23 ± 0.083.
Work on GGATCGCGAA yielded a switch fluorescence ratio of 0.978 ± 0.011.
Sequence GGATCGGGGG has a switch fluorescence ratio of 1.03 ± 0.05.
GGATCGTGGG was tested, and the switch fluorescence ratio was 0.995 ± 0.03.
In the case of GGATGAAGGA, the switch fluorescence ratio is reported as 0.978 ± 0.038.
GGATGAATTG showed a switch fluorescence ratio of 1.01 ± 0.018.
GGATGATTTG showed a switch fluorescence ratio of 0.968 ± 0.025.
Work on GGATGCGCAG yielded a switch fluorescence ratio of 0.987 ± 0.016.
Sequence GGATGCGGCC has a switch fluorescence ratio of 0.992 ± 0.023.
For GGATGGGATG, the switch fluorescence ratio was 0.989 ± 0.04.
In the case of GGATGGGGTG, the switch fluorescence ratio is reported as 1.01 ± 0.053.
Sequence GGATGTCTAG has a switch fluorescence ratio of 0.9885 ± 0.0037.
GGATGTGGGA gave a switch fluorescence ratio of 0.981 ± 0.017.
For GGATGTGGGG, the switch fluorescence ratio was 0.969 ± 0.034.
GGATGTTAGT was tested, and the switch fluorescence ratio was 1 ± 0.008.
GGATGTTTGG showed a switch fluorescence ratio of 0.975 ± 0.014.
For GGATTAAATG, the switch fluorescence ratio was 0.982 ± 0.037.
GGATTAATCG was tested, and the switch fluorescence ratio was 1 ± 0.015.
Work on GGATTACAGT yielded a switch fluorescence ratio of 0.997 ± 0.014.
Sequence GGATTAGGGG has a switch fluorescence ratio of 0.998 ± 0.022.
GGATTAGTCA showed a switch fluorescence ratio of 0.9973 ± 0.0047.
For GGATTATATT, the switch fluorescence ratio was 1.0205 ± 0.00083.
GGATTCAGGC was tested, and the switch fluorescence ratio was 0.981 ± 0.027.
GGATTCCGGC showed a switch fluorescence ratio of 0.981 ± 0.053.
Work on GGATTCGGTG yielded a switch fluorescence ratio of 0.976 ± 0.02.
In the case of GGATTGAAGT, the switch fluorescence ratio is reported as 0.981 ± 0.023.
GGATTGAGGC showed a switch fluorescence ratio of 0.968 ± 0.0046.
Sequence GGATTGAGGT has a switch fluorescence ratio of 1.02 ± 0.032.
Sequence GGATTGATTA has a switch fluorescence ratio of 1.01 ± 0.032.
With GGATTGATTT the switch fluorescence ratio was 0.993 ± 0.038.
With GGATTGCCGA the switch fluorescence ratio was 1.01 ± 0.043.
With GGATTGGCGG the switch fluorescence ratio was 0.983 ± 0.039.
For GGATTGTTTG, the switch fluorescence ratio was 1.009 ± 0.01.
Sequence GGATTTAATA has a switch fluorescence ratio of 1.02 ± 0.03.
Work on GGATTTAATG yielded a switch fluorescence ratio of 0.9523 ± 0.0057.
GGATTTATAA gave a switch fluorescence ratio of 0.9961 ± 0.0011.
With GGATTTTATC the switch fluorescence ratio was 0.992 ± 0.013.
GGATTTTGTT showed a switch fluorescence ratio of 0.998 ± 0.031.
With GGATTTTTAT the switch fluorescence ratio was 0.999 ± 0.028.
Work on GGATTTTTCA yielded a switch fluorescence ratio of 0.985 ± 0.013.
With GGATTTTTGG the switch fluorescence ratio was 0.989 ± 0.036.
GGCAAAGGAC showed a switch fluorescence ratio of 1.08 ± 0.027.
GGCAAATCGG was tested, and the switch fluorescence ratio was 0.995 ± 0.014.
With GGCAACAGCG the switch fluorescence ratio was 1.039 ± 0.003.
In the case of GGCAACGCGT, the switch fluorescence ratio is reported as 1 ± 0.025.
For GGCAATATGT, the switch fluorescence ratio was 1.24 ± 0.077.
Sequence GGCAATCCCA has a switch fluorescence ratio of 1.03 ± 0.012.
For GGCAATTATG, the switch fluorescence ratio was 1.02 ± 0.025.
GGCAATTTTT gave a switch fluorescence ratio of 0.992 ± 0.049.
Sequence GGCACTGGAT has a switch fluorescence ratio of 1.02 ± 0.02.
GGCACTGGGG gave a switch fluorescence ratio of 1.02 ± 0.02.
GGCAGCAAGG gave a switch fluorescence ratio of 1.084 ± 0.0029.
GGCAGCGGGG was tested, and the switch fluorescence ratio was 0.991 ± 0.019.
With GGCAGGAGGG the switch fluorescence ratio was 1.11 ± 0.22.
With GGCAGGCCAT the switch fluorescence ratio was 1.059 ± 0.0074.
With GGCAGGGGGA the switch fluorescence ratio was 1.01 ± 0.015.
Sequence GGCAGGTTGG has a switch fluorescence ratio of 0.952 ± 0.014.
GGCAGTTTTT showed a switch fluorescence ratio of 0.985 ± 0.02.
Sequence GGCATAAGGG has a switch fluorescence ratio of 1.03 ± 0.05.
In the case of GGCATACCGT, the switch fluorescence ratio is reported as 0.997 ± 0.0052.
Work on GGCATAGGGG yielded a switch fluorescence ratio of 1.01 ± 0.026.
For GGCATCGCCG, the switch fluorescence ratio was 0.954 ± 0.013.
Sequence GGCATCGTCG has a switch fluorescence ratio of 0.97 ± 0.025.
With GGCATTAAAG the switch fluorescence ratio was 0.9841 ± 0.0078.
Work on GGCATTGTCT yielded a switch fluorescence ratio of 1.03 ± 0.023.
Sequence GGCATTTTTT has a switch fluorescence ratio of 1 ± 0.031.
In the case of GGCCAATCAG, the switch fluorescence ratio is reported as 1.018 ± 0.0024.
Work on GGCCACGCTC yielded a switch fluorescence ratio of 1.04 ± 0.043.
Sequence GGCCCCCGGC has a switch fluorescence ratio of 0.969 ± 0.026.
Work on GGCCCCGGCG yielded a switch fluorescence ratio of 1 ± 0.015.
Work on GGCCCCTTTT yielded a switch fluorescence ratio of 1.021 ± 0.0053.
GGCCCGGCAC gave a switch fluorescence ratio of 1.01 ± 0.013.
Sequence GGCCCGGGGT has a switch fluorescence ratio of 1.44 ± 0.37.
